From article PMC9482650, “Quantitative fragmentomics allow affinity mapping of interactomes” (Nature Communications, 2022)

T1: ARHGEF11, O15085
T1 sequence (O15085 42-136, limits assumed, looked up): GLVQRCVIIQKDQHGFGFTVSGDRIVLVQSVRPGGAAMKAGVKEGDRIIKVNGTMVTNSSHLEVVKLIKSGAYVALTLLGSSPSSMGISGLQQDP

T2: CARD11, Q9BXL7
T2 sequence (Q9BXL7 662-765, limits assumed, looked up): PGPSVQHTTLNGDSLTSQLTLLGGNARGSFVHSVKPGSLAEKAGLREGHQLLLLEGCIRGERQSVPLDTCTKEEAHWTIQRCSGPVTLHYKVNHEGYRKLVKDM

T3: DVL3, Q92997
T3 sequence (Q92997 244-331, limits assumed, looked up): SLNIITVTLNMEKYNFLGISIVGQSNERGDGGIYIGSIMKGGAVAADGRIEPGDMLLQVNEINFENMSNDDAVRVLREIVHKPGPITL

T4: GRIP1_3, Q9Y3R0
T4 sequence (Q9Y3R0 247-346, limits assumed, looked up): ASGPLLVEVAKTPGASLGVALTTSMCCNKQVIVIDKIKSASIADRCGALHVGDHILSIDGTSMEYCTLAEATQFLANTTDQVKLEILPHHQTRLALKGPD

T5: GRIP1_7, Q9Y3R0
T5 sequence (Q9Y3R0 999-1096, limits assumed, looked up): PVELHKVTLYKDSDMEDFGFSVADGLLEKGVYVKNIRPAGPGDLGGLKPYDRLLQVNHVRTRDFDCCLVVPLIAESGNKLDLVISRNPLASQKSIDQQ

T6: HTRA3, P83110
T6 sequence (P83110 354-453, limits assumed, looked up): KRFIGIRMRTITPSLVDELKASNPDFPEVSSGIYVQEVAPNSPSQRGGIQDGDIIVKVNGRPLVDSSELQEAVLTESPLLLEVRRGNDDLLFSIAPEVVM

T7: LNX2_3, Q8N448
T7 sequence (Q8N448 463-564, limits assumed, looked up): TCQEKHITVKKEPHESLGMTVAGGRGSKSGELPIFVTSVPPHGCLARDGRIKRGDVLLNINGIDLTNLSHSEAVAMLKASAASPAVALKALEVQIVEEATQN

T8: LRRC7, Q96NW7
T8 sequence (Q96NW7 1440-1537, limits assumed, looked up): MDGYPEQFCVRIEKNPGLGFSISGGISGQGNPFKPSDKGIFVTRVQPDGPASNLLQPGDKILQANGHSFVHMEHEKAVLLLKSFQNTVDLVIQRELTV

T9: MPDZ_12, O75970
T9 sequence (O75970 1857-1958, limits assumed, looked up): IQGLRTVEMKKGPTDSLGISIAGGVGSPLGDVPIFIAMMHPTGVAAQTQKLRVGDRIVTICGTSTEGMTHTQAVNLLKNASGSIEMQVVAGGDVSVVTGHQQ

T10: RHPN1, Q8TCX5
T10 sequence (Q8TCX5 508-602, limits assumed, looked up): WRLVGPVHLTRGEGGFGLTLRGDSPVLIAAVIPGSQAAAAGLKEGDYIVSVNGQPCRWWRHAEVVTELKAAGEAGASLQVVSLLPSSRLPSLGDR


Legend:
Assay in all cases: holdup assay
Design in all cases: key: below the threshold = too weak to quantify, mostly under pKd 3.1 to 4
Conditions in all cases: plain residues with an end cap or a label only (N-terminal biotin on a linker: ado-ado)
ARHGEF11, O15085 = molecular target: T1, ARHGEF11, O15085
CARD11, Q9BXL7 = molecular target: T2, CARD11, Q9BXL7
DLG5_1, Q8TDM6 = molecular target: DLG5_1, Q8TDM6
DVL3, Q92997 = molecular target: T3, DVL3, Q92997
GIPC2, Q8TF65 = molecular target: GIPC2, Q8TF65
GRASP, Q7Z6J2 = molecular target: GRASP, Q7Z6J2
GRIP1_3, Q9Y3R0 = molecular target: T4, GRIP1_3, Q9Y3R0
GRIP1_7, Q9Y3R0 = molecular target: T5, GRIP1_7, Q9Y3R0
GRIP2_5, Q9C0E4 = molecular target: GRIP2_5, Q9C0E4
HTRA3, P83110 = molecular target: T6, HTRA3, P83110
IL16_1, Q14005 = molecular target: IL16_1, Q14005
Inadl_10, Q8NI35 = molecular target: Inadl_10, Q8NI35
LDB3, O75112 = molecular target: LDB3, O75112
LNX1_1, Q8TBB1 = molecular target: LNX1_1, Q8TBB1
LNX1_3, Q8TBB1 = molecular target: LNX1_3, Q8TBB1
LNX2_3, Q8N448 = molecular target: T7, LNX2_3, Q8N448
LRRC7, Q96NW7 = molecular target: T8, LRRC7, Q96NW7
MAGI1_2, Q96QZ7 = molecular target: MAGI1_2, Q96QZ7
MAGI2_3, Q86UL8 = molecular target: MAGI2_3, Q86UL8
MPDZ_12, O75970 = molecular target: T9, MPDZ_12, O75970
NHERF4_1, Q86UT5-2 = molecular target: NHERF4_1, Q86UT5-2
NHERF4_2, Q86UT5 = molecular target: NHERF4_2, Q86UT5
NHERF4_4, Q86UT5 = molecular target: NHERF4_4, Q86UT5
PDZRN4_1, Q6ZMN7 = molecular target: PDZRN4_1, Q6ZMN7
RHPN1, Q8TCX5 = molecular target: T10, RHPN1, Q8TCX5
SCRIB_1, Q14160 = molecular target: SCRIB_1, Q14160
TJP1_2, Q07157 = molecular target: TJP1_2, Q07157
TJP1_3, Q07157 = molecular target: TJP1_3, Q07157
Sequence of TJP1_3, Q07157 (Q07157 416-512): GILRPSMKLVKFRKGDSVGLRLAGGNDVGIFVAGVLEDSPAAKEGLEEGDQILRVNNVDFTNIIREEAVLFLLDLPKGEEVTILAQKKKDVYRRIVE

Sequence of Inadl_10, Q8NI35 (Q8NI35 1673-1763): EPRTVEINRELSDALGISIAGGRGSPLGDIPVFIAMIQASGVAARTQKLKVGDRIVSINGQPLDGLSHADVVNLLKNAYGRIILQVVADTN
Sequence of IL16_1, Q14005 (Q14005 210-306): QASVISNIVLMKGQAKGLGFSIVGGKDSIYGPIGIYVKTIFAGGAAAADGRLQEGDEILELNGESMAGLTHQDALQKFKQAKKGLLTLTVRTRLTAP
Sequence of NHERF4_4, Q86UT5 (Q86UT5 464-550): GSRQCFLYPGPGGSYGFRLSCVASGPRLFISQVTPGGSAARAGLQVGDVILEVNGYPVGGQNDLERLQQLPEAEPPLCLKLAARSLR
Sequence of SCRIB_1, Q14160 (Q14160 718-814): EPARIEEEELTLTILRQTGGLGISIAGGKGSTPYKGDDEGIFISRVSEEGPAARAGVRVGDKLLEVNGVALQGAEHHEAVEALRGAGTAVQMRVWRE
Sequence of LNX1_3, Q8TBB1 (Q8TBB1 500-596): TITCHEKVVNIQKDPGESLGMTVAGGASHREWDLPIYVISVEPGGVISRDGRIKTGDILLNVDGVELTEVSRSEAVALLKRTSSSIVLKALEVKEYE
Sequence of LDB3, O75112 (O75112 1-94): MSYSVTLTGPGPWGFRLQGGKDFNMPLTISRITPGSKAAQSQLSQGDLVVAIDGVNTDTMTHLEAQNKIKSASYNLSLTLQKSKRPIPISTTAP
Sequence of MAGI2_3, Q86UL8 (Q86UL8 600-682): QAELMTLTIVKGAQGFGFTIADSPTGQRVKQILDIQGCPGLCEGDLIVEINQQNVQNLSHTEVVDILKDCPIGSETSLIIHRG
Sequence of MAGI1_2, Q96QZ7 (Q96QZ7 456-580): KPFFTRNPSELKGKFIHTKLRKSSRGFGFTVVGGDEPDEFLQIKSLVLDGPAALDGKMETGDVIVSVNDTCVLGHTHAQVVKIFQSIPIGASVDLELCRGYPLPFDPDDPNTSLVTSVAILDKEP
Sequence of GRASP, Q7Z6J2 (Q7Z6J2 96-193): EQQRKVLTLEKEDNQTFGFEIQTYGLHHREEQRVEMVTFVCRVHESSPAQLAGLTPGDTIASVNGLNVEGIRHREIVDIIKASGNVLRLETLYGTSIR
Sequence of GRIP2_5, Q9C0E4 (Q9C0E4 544-642): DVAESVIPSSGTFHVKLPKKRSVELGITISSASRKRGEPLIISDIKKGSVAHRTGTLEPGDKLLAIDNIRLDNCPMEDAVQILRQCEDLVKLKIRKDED
Sequence of DLG5_1, Q8TDM6 (Q8TDM6 617-713): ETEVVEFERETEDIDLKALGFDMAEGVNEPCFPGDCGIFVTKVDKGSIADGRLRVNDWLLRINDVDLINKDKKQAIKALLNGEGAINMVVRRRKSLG
Sequence of NHERF4_2, Q86UT5 (Q86UT5 220-308): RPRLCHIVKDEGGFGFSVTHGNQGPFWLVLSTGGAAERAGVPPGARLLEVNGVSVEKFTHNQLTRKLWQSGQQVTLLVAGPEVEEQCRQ
Sequence of PDZRN4_1, Q6ZMN7 (Q6ZMN7 213-318): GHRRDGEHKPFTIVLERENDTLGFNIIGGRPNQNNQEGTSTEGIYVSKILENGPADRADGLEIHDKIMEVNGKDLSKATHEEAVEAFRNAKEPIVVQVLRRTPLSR
Sequence of TJP1_2, Q07157 (Q07157 181-274): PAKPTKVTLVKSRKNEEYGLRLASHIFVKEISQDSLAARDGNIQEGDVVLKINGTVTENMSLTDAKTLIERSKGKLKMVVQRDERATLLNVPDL
Sequence of GIPC2, Q8TF65 (Q8TF65 112-203): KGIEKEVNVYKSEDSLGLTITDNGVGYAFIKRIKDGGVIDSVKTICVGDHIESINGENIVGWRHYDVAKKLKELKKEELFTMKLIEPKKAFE
Sequence of LNX1_1, Q8TBB1 (Q8TBB1 261-371): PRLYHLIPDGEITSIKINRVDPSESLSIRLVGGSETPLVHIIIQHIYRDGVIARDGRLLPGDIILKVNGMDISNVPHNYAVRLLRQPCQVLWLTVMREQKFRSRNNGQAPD
Sequence of NHERF4_1, Q86UT5-2 (Q86UT5 other isoform, or with tags, fused parts or gaps): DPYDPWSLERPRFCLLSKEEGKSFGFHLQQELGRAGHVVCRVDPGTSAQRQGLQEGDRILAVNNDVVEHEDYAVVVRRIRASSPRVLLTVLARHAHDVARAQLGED

Binder | pKd (ARHGEF11, O15085) | pKd (CARD11, Q9BXL7) | pKd (DLG5_1, Q8TDM6) | pKd (DVL3, Q92997) | pKd (GIPC2, Q8TF65) | pKd (GRASP, Q7Z6J2) | pKd (GRIP1_3, Q9Y3R0) | pKd (GRIP1_7, Q9Y3R0) | pKd (GRIP2_5, Q9C0E4) | pKd (HTRA3, P83110) | pKd (IL16_1, Q14005) | pKd (Inadl_10, Q8NI35) | pKd (LDB3, O75112) | pKd (LNX1_1, Q8TBB1) | pKd (LNX1_3, Q8TBB1) | pKd (LNX2_3, Q8N448) | pKd (LRRC7, Q96NW7) | pKd (MAGI1_2, Q96QZ7) | pKd (MAGI2_3, Q86UL8) | pKd (MPDZ_12, O75970) | also measured
PASAKGPLGV [CLDN19, Q8N6F1] | below the threshold | below the threshold | below the threshold | below the threshold | below the threshold | below the threshold | below the threshold | below the threshold | below the threshold | below the threshold | below the threshold | below the threshold | below the threshold | below the threshold | below the threshold | below the threshold | below the threshold | below the threshold | below the threshold | below the threshold | pKd (NHERF4_1, Q86UT5-2): 3.49; pKd (NHERF4_2, Q86UT5): below the threshold; pKd (NHERF4_4, Q86UT5): below the threshold; pKd (PDZRN4_1, Q6ZMN7): below the threshold; pKd (RHPN1, Q8TCX5): below the threshold; pKd (SCRIB_1, Q14160): below the threshold; pKd (TJP1_2, Q07157): below the threshold; pKd (TJP1_3, Q07157): below the threshold
PAPGQHTTQI [STK16, O75716] | below the threshold | below the threshold | below the threshold | below the threshold | below the threshold | 3.58 | below the threshold | below the threshold | below the threshold | below the threshold | below the threshold | below the threshold | below the threshold | below the threshold | below the threshold | below the threshold | below the threshold | below the threshold | below the threshold | below the threshold | pKd (NHERF4_1, Q86UT5-2): below the threshold; pKd (NHERF4_2, Q86UT5): below the threshold; pKd (NHERF4_4, Q86UT5): below the threshold; pKd (PDZRN4_1, Q6ZMN7): below the threshold; pKd (RHPN1, Q8TCX5): 4.35; pKd (SCRIB_1, Q14160): 3.84; pKd (TJP1_2, Q07157): below the threshold; pKd (TJP1_3, Q07157): below the threshold
DSATVRTYSC [PPFIA1, Q13136] | 3.66 | below the threshold | below the threshold | below the threshold | below the threshold | 4.31 | below the threshold | below the threshold | below the threshold | 4.65 | below the threshold | below the threshold | below the threshold | below the threshold | below the threshold | below the threshold | below the threshold | below the threshold | below the threshold | below the threshold | pKd (NHERF4_1, Q86UT5-2): 3.98; pKd (NHERF4_2, Q86UT5): below the threshold; pKd (NHERF4_4, Q86UT5): below the threshold; pKd (PDZRN4_1, Q6ZMN7): below the threshold; pKd (RHPN1, Q8TCX5): below the threshold; pKd (SCRIB_1, Q14160): below the threshold; pKd (TJP1_2, Q07157): 3.48; pKd (TJP1_3, Q07157): below the threshold
